The values below come from patent US20070129319.

The test system of data set [1] is ubiquitin-Met-beta-galactosidase fusion protein.
Data set [2] concerns the target ubiquitin-Met-beta-galactosidase fusion protein. This is another data set of the same source.

On to GST-DUB-3 fusion protein (pGEX-DUB-3), for which the “cleavage of ubiquitin from the ubiquitin-Met-beta-galactosidase fusion protein (immunoblot with anti-beta-galactosidase)” value in data set [1] was “DUB-3 displayed deubiquitinating activity at least equivalent to that of DUB-1”.

Consider “GST-DUB-3C89S fusion protein (pGEX-DUB-3C89S)”, for which the “cleavage of ubiquitin from the ubiquitin-Met-beta-galactosidase fusion protein (immunoblot with anti-beta-galactosidase)” value in data set [1] is recorded as “this activity was ablated by mutating the cysteine residue (C89S) conserved within the active site”.

B1: GST-DUB-1 fusion protein (pGEX-DUB-1) (protein)
chain: MVVALSFPEADPALSSPDAPELHQDEAQVVEELTVNGKHSLSWESPQGPGCGLQNTGNSCYLNAALQCLTHTPPLADYMLSQEHSQTCCSPEGCKLCAMEALVTQSLLHSHSGDVMKPSHILTSAFHKHQQEDAHEFLMFTLETMHESCLQVHRQSKPTSEDSSPIHDIFGGWWRSQIKCLLCQGTSDTYDRFLDIPLDISSAQSVKQALWDTEKSEELCGDNAYYCGKCRQKMPASKTLHVHIAPKVLMVVLNRFSAFTGNKLDRKVSYPEFLDLKPYLSEPTGGPLPYALYAVLVHDGATSHSGHYFCCVKAGHGKWYKMDDTKVTRCDVTSVLNENAYVLFYVQQANLKQVSIDMPEGRINEVLDPEYQLKKSRRKKHKKKSPFTEDLGEPCENRDKRAIKETSLGKGKVLQEVNHKKAGQKHGNTKLMPQKQNHQKAGQNLRNTEVELDLPADAIVIHQPRSTANWGRDSPDKENQPLHNADRLLTSQGPVNTWQLCRQEGRRRSKKGQNKNKQGQRLLLVC
On to B1, for which the “cleavage of the Ub-Met-beta-gal fusion” value in data set [2] is “Deubiquitinating activity was demonstrated for both DUB-1 and DUB-3 fusion proteins by the cleavage of the Ub-Met-β-gal fusion”.

B2: GST-DUB-1C60S fusion protein (pGEX-DUB-1 (C60)) (protein)
chain: MVVALSFPEADPALSSPDAPELHQDEAQVVEELTVNGKHSLSWESPQGPGCGLQNTGNSSYLNAALQCLTHTPPLADYMLSQEHSQTCCSPEGCKLCAMEALVTQSLLHSHSGDVMKPSHILTSAFHKHQQEDAHEFLMFTLETMHESCLQVHRQSKPTSEDSSPIHDIFGGWWRSQIKCLLCQGTSDTYDRFLDIPLDISSAQSVKQALWDTEKSEELCGDNAYYCGKCRQKMPASKTLHVHIAPKVLMVVLNRFSAFTGNKLDRKVSYPEFLDLKPYLSEPTGGPLPYALYAVLVHDGATSHSGHYFCCVKAGHGKWYKMDDTKVTRCDVTSVLNENAYVLFYVQQANLKQVSIDMPEGRINEVLDPEYQLKKSRRKKHKKKSPFTEDLGEPCENRDKRAIKETSLGKGKVLQEVNHKKAGQKHGNTKLMPQKQNHQKAGQNLRNTEVELDLPADAIVIHQPRSTANWGRDSPDKENQPLHNADRLLTSQGPVNTWQLCRQEGRRRSKKGQNKNKQGQRLLLVC
Regarding B2, the “cleavage of the Ub-Met-beta-gal fusion” value in data set [2] is “DUB-1C60S (lane 3) and DUB-3C89S (lane 5) are catalytically inactive”.
